Results reported in article PMC13397619.

B1: NLV3 TCR beta chain (CDR3β only) (parent)
chain: ASSPTGGSPSPLH

Variants of: B1
Experiment: T-Switch: Jurkat TCRβ−/− cells expressing a CDR3 saturation-mutagenesis library, stained with two peptide-HLA-A*02:01 tetramers (original and novel peptide) plus anti-CD3, FACS-sorted into four gates, gDNA sequenced
Details: tetramers 1 µg/mL, 30 min on ice, SP, DP and SW gates expanded about 10 days between rounds ('two to three rounds of selection' in the Methods), unresolved parent, parent is a CDR3 fragment, scale: fold enrichment, numbering: sequential-on-construct, sequence starts at 1
[1] = with both tetramers (double-negative gate, binds neither): HLA-A*02:01 with … and with …, gate DN: OPPOSITE: higher = more of the variant in the gate that binds neither peptide = LESS binding (or no expression; inferred). Fold enrichment of the CDR3 variant in one FACS gate of a two-tetram
[2] = with both tetramers (double-positive gate): HLA-A*02:01 with … and with …, gate DP: higher = more of the variant in the gate that binds both peptides. Fold enrichment of the CDR3 variant in one FACS gate of a two-tetramer stain. SP/DP/SW gates were expanded and re-sorted bef

[…] (CDR3 as printed); A1C derived by comparing it with the table's wild-type CDR3 ASSPTGGSPSPLH
enrichment [1]: 1.24
enrichment [2]: 0

[…] (CDR3 as printed); A1D derived by comparing it with the table's wild-type CDR3 ASSPTGGSPSPLH
enrichment [1]: 0.881
enrichment [2]: 0

[…] (CDR3 as printed); A1E derived by comparing it with the table's wild-type CDR3 ASSPTGGSPSPLH
enrichment [1]: 1.07
enrichment [2]: 0

[…] (CDR3 as printed); A1F derived by comparing it with the table's wild-type CDR3 ASSPTGGSPSPLH
enrichment [1]: 0.897
enrichment [2]: 0

[…] (CDR3 as printed); A1G derived by comparing it with the table's wild-type CDR3 ASSPTGGSPSPLH
enrichment [1]: 0.451
enrichment [2]: 0

[…] (CDR3 as printed); A1H derived by comparing it with the table's wild-type CDR3 ASSPTGGSPSPLH
enrichment [1]: 0.916
enrichment [2]: 0

[…] (CDR3 as printed); A1I derived by comparing it with the table's wild-type CDR3 ASSPTGGSPSPLH
enrichment [1]: 1.15
enrichment [2]: 0

[…] (CDR3 as printed); A1K derived by comparing it with the table's wild-type CDR3 ASSPTGGSPSPLH
enrichment [1]: 0.994
enrichment [2]: 0

[…] (CDR3 as printed); A1L derived by comparing it with the table's wild-type CDR3 ASSPTGGSPSPLH
enrichment [1]: 0.861
enrichment [2]: 0

[…] (CDR3 as printed); A1M derived by comparing it with the table's wild-type CDR3 ASSPTGGSPSPLH
enrichment [1]: 1.12
enrichment [2]: 0

[…] (CDR3 as printed); A1N derived by comparing it with the table's wild-type CDR3 ASSPTGGSPSPLH
enrichment [1]: 1.07
enrichment [2]: 0

[…] (CDR3 as printed); A1P derived by comparing it with the table's wild-type CDR3 ASSPTGGSPSPLH
enrichment [1]: 1.02
enrichment [2]: 0

[…] (CDR3 as printed); A1Q derived by comparing it with the table's wild-type CDR3 ASSPTGGSPSPLH
enrichment [1]: 0.998
enrichment [2]: 0

[…] (CDR3 as printed); A1R derived by comparing it with the table's wild-type CDR3 ASSPTGGSPSPLH
enrichment [1]: 0.65
enrichment [2]: 0

[…] (CDR3 as printed); A1S derived by comparing it with the table's wild-type CDR3 ASSPTGGSPSPLH
enrichment [1]: 1.25
enrichment [2]: 0

[…] (CDR3 as printed); A1T derived by comparing it with the table's wild-type CDR3 ASSPTGGSPSPLH
enrichment [1]: 0.774
enrichment [2]: 0

[…] (CDR3 as printed); A1V derived by comparing it with the table's wild-type CDR3 ASSPTGGSPSPLH
enrichment [1]: 0.797
enrichment [2]: 0

[…] (CDR3 as printed); A1W derived by comparing it with the table's wild-type CDR3 ASSPTGGSPSPLH
enrichment [1]: 0.805
enrichment [2]: 0

[…] (CDR3 as printed); A1Y derived by comparing it with the table's wild-type CDR3 ASSPTGGSPSPLH
enrichment [1]: 1.15
enrichment [2]: 0

[…] (CDR3 as printed); G6A derived by comparing it with the table's wild-type CDR3 ASSPTGGSPSPLH
enrichment [1]: 0.582
enrichment [2]: 0

[…] (CDR3 as printed); G6C derived by comparing it with the table's wild-type CDR3 ASSPTGGSPSPLH
enrichment [1]: 0.841
enrichment [2]: 0

[…] (CDR3 as printed); G6D derived by comparing it with the table's wild-type CDR3 ASSPTGGSPSPLH
enrichment [1]: 0.99
enrichment [2]: 0

[…] (CDR3 as printed); G6E derived by comparing it with the table's wild-type CDR3 ASSPTGGSPSPLH
enrichment [1]: 1.12
enrichment [2]: 0

[…] (CDR3 as printed); G6F derived by comparing it with the table's wild-type CDR3 ASSPTGGSPSPLH
enrichment [1]: 1.27
enrichment [2]: 0

[…] (CDR3 as printed); G6H derived by comparing it with the table's wild-type CDR3 ASSPTGGSPSPLH
enrichment [1]: 1.05
enrichment [2]: 0

[…] (CDR3 as printed); G6I derived by comparing it with the table's wild-type CDR3 ASSPTGGSPSPLH
enrichment [1]: 1.08
enrichment [2]: 0

[…] (CDR3 as printed); G6K derived by comparing it with the table's wild-type CDR3 ASSPTGGSPSPLH
enrichment [1]: 1.4
enrichment [2]: 0

[…] (CDR3 as printed); G6L derived by comparing it with the table's wild-type CDR3 ASSPTGGSPSPLH
enrichment [1]: 0.967
enrichment [2]: 0

[…] (CDR3 as printed); G6M derived by comparing it with the table's wild-type CDR3 ASSPTGGSPSPLH
enrichment [1]: 0.906
enrichment [2]: 0

[…] (CDR3 as printed); G6N derived by comparing it with the table's wild-type CDR3 ASSPTGGSPSPLH
enrichment [1]: 1.47
enrichment [2]: 0

[…] (CDR3 as printed); G6P derived by comparing it with the table's wild-type CDR3 ASSPTGGSPSPLH
enrichment [1]: 1.09
enrichment [2]: 0

[…] (CDR3 as printed); G6Q derived by comparing it with the table's wild-type CDR3 ASSPTGGSPSPLH
enrichment [1]: 1.2
enrichment [2]: 0

[…] (CDR3 as printed); G6R derived by comparing it with the table's wild-type CDR3 ASSPTGGSPSPLH
enrichment [1]: 0.796
enrichment [2]: 0

[…] (CDR3 as printed); G6S derived by comparing it with the table's wild-type CDR3 ASSPTGGSPSPLH
enrichment [1]: 0.376
enrichment [2]: 0

[…] (CDR3 as printed); G6T derived by comparing it with the table's wild-type CDR3 ASSPTGGSPSPLH
enrichment [1]: 1.01
enrichment [2]: 0

[…] (CDR3 as printed); G6V derived by comparing it with the table's wild-type CDR3 ASSPTGGSPSPLH
enrichment [1]: 1.33
enrichment [2]: 0

[…] (CDR3 as printed); G6W derived by comparing it with the table's wild-type CDR3 ASSPTGGSPSPLH
enrichment [1]: 1.44
enrichment [2]: 0

[…] (CDR3 as printed); G6Y derived by comparing it with the table's wild-type CDR3 ASSPTGGSPSPLH
enrichment [1]: 0.661
enrichment [2]: 0

[…] (CDR3 as printed); G7A derived by comparing it with the table's wild-type CDR3 ASSPTGGSPSPLH
enrichment [1]: 0.658
enrichment [2]: 0

[…] (CDR3 as printed); G7C derived by comparing it with the table's wild-type CDR3 ASSPTGGSPSPLH
enrichment [1]: 0.947
enrichment [2]: 0

[…] (CDR3 as printed); G7D derived by comparing it with the table's wild-type CDR3 ASSPTGGSPSPLH
enrichment [1]: 1.18
enrichment [2]: 0

[…] (CDR3 as printed); G7E derived by comparing it with the table's wild-type CDR3 ASSPTGGSPSPLH
enrichment [1]: 1.08
enrichment [2]: 0

[…] (CDR3 as printed); G7F derived by comparing it with the table's wild-type CDR3 ASSPTGGSPSPLH
enrichment [1]: 1.02
enrichment [2]: 0

[…] (CDR3 as printed); G7H derived by comparing it with the table's wild-type CDR3 ASSPTGGSPSPLH
enrichment [1]: 0.687
enrichment [2]: 0

[…] (CDR3 as printed); G7I derived by comparing it with the table's wild-type CDR3 ASSPTGGSPSPLH
enrichment [1]: 1.05
enrichment [2]: 0

[…] (CDR3 as printed); G7K derived by comparing it with the table's wild-type CDR3 ASSPTGGSPSPLH
enrichment [1]: 1.36
enrichment [2]: 0

[…] (CDR3 as printed); G7L derived by comparing it with the table's wild-type CDR3 ASSPTGGSPSPLH
enrichment [1]: 1.32
enrichment [2]: 0

[…] (CDR3 as printed); G7M derived by comparing it with the table's wild-type CDR3 ASSPTGGSPSPLH
enrichment [1]: 0.978
enrichment [2]: 0

[…] (CDR3 as printed); G7N derived by comparing it with the table's wild-type CDR3 ASSPTGGSPSPLH
enrichment [1]: 0.87
enrichment [2]: 0

[…] (CDR3 as printed); G7Q derived by comparing it with the table's wild-type CDR3 ASSPTGGSPSPLH
enrichment [1]: 1.09
enrichment [2]: 0

[…] (CDR3 as printed); G7R derived by comparing it with the table's wild-type CDR3 ASSPTGGSPSPLH
enrichment [1]: 1.17
enrichment [2]: 0

[…] (CDR3 as printed); G7S derived by comparing it with the table's wild-type CDR3 ASSPTGGSPSPLH
enrichment [1]: 1.32
enrichment [2]: 0

[…] (CDR3 as printed); G7T derived by comparing it with the table's wild-type CDR3 ASSPTGGSPSPLH
enrichment [1]: 0.754
enrichment [2]: 0

[…] (CDR3 as printed); G7V derived by comparing it with the table's wild-type CDR3 ASSPTGGSPSPLH
enrichment [1]: 1.02
enrichment [2]: 0

[…] (CDR3 as printed); G7W derived by comparing it with the table's wild-type CDR3 ASSPTGGSPSPLH
enrichment [1]: 1.22
enrichment [2]: 0

[…] (CDR3 as printed); G7Y derived by comparing it with the table's wild-type CDR3 ASSPTGGSPSPLH
enrichment [1]: 0.917
enrichment [2]: 0

[…] (CDR3 as printed); H13A derived by comparing it with the table's wild-type CDR3 ASSPTGGSPSPLH
enrichment [1]: 0.498
enrichment [2]: 0
